In PMC4715562 (Proteins, 2015):

Biological target: the molecule itself
Test: crystal structure

B1: Xrcc4-MyH7-1590-1657 (domain or fragment, human)
chain: GGSGERKISRIHLVSEPSITHFLQVSWEKTLESGFVITLTDGHSAWTGTVSESEISQEADDMAMEKGKYVGELRKALLSGAGPADVYTFNFSKESCYFFFEKNLKDVSFRLGSFNLEKVENPAEVIRELICYCLDTTAENQAKNEHHLRVVDSLQTSLDAETRSRNEALRVKKKMEGDLNEMEIQLSHANRMAAEAQKQVKSLQSLLKDTQIQL
modifications: reductively methylated
B1: binds.
